Assay results as given in paper PMC3961685, “Origin of the Proton-transfer Step in the Cofactor-free (1H)-3-Hydroxy-4-oxoquinaldine 2,4-Dioxygenase” (The Journal of Biological Chemistry, 2014).

What was measured:
[1] = target: T1, HOD (WT HOD = HOD C69S); (1H)-3-hydroxy-4-oxoquinaldine 2,4-dioxygenase (Paenarthrobacter nitroguajacolicus, UniProt O31266, C69S); experiment: anaerobic stopped-flow, QND deprotonation at […] nm, kobs vs [QND] fit; type: binding
T1 construct: full-length HOD C69S in pQE30 (His-tag vector, Ni column); ~31 kDa monomer

[2] = target: T2, HOD (WT HOD = HOD C69S); (1H)-3-hydroxy-4-oxoquinaldine 2,4-dioxygenase (Paenarthrobacter nitroguajacolicus, UniProt O31266, C69S/H251A); experiment: X-ray crystal structure, […] Å, crystal soaked with QND; type: binding; conditions: 2 mM QND soak about 2 h, pH 7.0; active site
T2 construct: full-length HOD C69S in pQE30 (His-tag vector, Ni column); ~31 kDa monomer

Cc1[nH]c2ccccc2c(=O)c1O = experiment: purified protein; type: biochemical, Paenarthrobacter nitroguajacolicus; conditions: pH 6.5, air-saturated 0.1 M MTE, 5 mM NaCl, 2 mM EDTA, 20 °C, O2 co-substrate, also measured at pH 10.5

T2 sequence (O31266 whole entry C69S/H251A): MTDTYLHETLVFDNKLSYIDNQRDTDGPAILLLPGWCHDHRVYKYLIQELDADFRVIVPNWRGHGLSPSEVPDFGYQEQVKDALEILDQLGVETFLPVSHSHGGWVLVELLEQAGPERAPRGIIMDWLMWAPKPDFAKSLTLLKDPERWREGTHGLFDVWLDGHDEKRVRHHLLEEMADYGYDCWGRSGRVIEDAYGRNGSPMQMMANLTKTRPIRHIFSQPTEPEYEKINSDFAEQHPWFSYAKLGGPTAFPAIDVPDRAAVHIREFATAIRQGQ
T1 sequence (O31266 whole entry C69S): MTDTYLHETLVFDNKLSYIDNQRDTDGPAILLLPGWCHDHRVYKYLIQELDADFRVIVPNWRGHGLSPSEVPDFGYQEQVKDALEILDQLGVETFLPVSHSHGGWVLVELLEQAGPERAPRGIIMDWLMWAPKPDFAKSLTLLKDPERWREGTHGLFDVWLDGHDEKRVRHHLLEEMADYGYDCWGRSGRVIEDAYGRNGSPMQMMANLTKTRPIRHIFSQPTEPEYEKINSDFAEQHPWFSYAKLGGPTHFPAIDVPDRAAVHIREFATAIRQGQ

Compound | Kd [1] [µM] | X-ray crystal structure, 1.95 Å, crystal soaked with QND [2] | Km (Cc1[nH]c2ccccc2c(=O)c1O) [µM] | kcat (Cc1[nH]c2ccccc2c(=O)c1O) [s⁻¹]
Cc1[nH]c2ccccc2c(=O)c1O [QND, (1H)-3-hydroxy-4-oxoquinaldine] | 214 ± 9 | we solved the x-ray structure of this variant in complex with the QND substrate | – | –
HOD (WT HOD = HOD C69S); (1H)-3-hydroxy-4-oxoquinaldine 2,4-dioxygenase (Paenarthrobacter nitroguajacolicus; C69S) | – | – | 3.2 ± 0.1 | 16.3 ± 0.1
HOD (WT HOD = HOD C69S); (1H)-3-hydroxy-4-oxoquinaldine 2,4-dioxygenase (Paenarthrobacter nitroguajacolicus; C69S/D126A) | – | – | 20.9 ± 0.6 | 0.19 ± 0.01
HOD (WT HOD = HOD C69S); (1H)-3-hydroxy-4-oxoquinaldine 2,4-dioxygenase (Paenarthrobacter nitroguajacolicus; C69S/H251A) | – | – | 58.9 ± 14.6 | 0.0006 ± 0.0001
